Assays:
[1] = Conversion of PEG conjugates to drug in human plasma; assay type: in vitro ADME
[2] = Pharmacokinetic comparison of Compound A and prodrug in mouse; assay type: in vivo

SMILES | Conversion to drug in Human Plasma (%) 2 min [1] [%] | Conversion to drug in Human Plasma (%) 30 min [1] [%] | Conversion to drug in Human Plasma (%) 1 hr [1] [%] | Conversion to drug in Human Plasma (%) 2 hr [1] [%] | Conversion to drug in Human Plasma (%) 4 hr [1] [%] | [Cmpd A] (μM) at 1 hr ([2]; time 1 hr) [µM] | [Cmpd A] (μM) at 4 hr ([2]; time 4 hr, BLOQ = below level of quantitation) | [Cmpd A] (μM) at 6 hr ([2]; time 6 hr, BLOQ = below level of quantitation) | [Cmpd A] (μM) at 24 hr ([2]; time 24 hr, BLOQ = below level of quantitation)
COCCOCCOCCOCCOCCOCCOCCOCCn1cc(COCCCS(=O)(=O)OCC(C)(O)C(=O)[C@H](CC(C)C)NC(=O)[C@H](Cc2ccccc2)NC(=O)[C@H](CC(C)C)NC(=O)[C@H](CCc2ccccc2)NC(=O)CN2CCOCC2)nn1 (some centres unmarked) | 2 | 18 | 58 | 90 | 80 |  |  |  | 
COCCOCCOCCOCCOCCOCCOCCOCCn1cc(CNC(=O)c2cccc(S(=O)(=O)OCC(C)(O)C(=O)[C@H](CC(C)C)NC(=O)[C@H](Cc3ccccc3)NC(=O)[C@H](CC(C)C)NC(=O)[C@H](CCc3ccccc3)NC(=O)CN3CCOCC3)c2)nn1 (some centres unmarked) | 7 | 63 | 100 | 95 | 80 |  |  |  | 
CC(C)C[C@H](NC(=O)[C@H](CCc1ccccc1)NC(=O)CN1CCOCC1)C(=O)N[C@@H](Cc1ccccc1)C(=O)N[C@@H](CC(C)C)C(=O)[C@@]1(C)CO1 [Cmpd A, (S)-4-methyl-N—((S)-1-(((S)-4-methyl-1-((R)-2-methyloxiran-2-yl)-1-oxopentan-2-yl)amino)-1-oxo-3-phenylpropan-2-yl)-2-((S)-2-(2-morpholinoacetamido)-4-phenylbutanamido)pentanamide] |  |  |  |  |  | 0.008 | BLOQ | BLOQ | BLOQ
